In paper PMC2814163 (Biochemistry, 2010):
Numbering of substitutions follows the chain as printed. Like-named read-outs stand apart in the source and are kept apart here.

B1: bovine prothrombin (natural protein)
chain: not shown
modifications: plasma-purified zymogen; gamma-carboxyglutamate in Gla domain, N-glycosylated, disulfides (by convention, not given)
B2: human β-glucuronidase (enzyme, UniProt P08236 23-651, looked up)
chain: LQGGMLYPQESPSRECKELDGLWSFRADFSDNRRRGFEEQWYRRPLWESGPTVDMPVPSSFNDISQDWRLRHFVGWVWYEREVILPERWTQDLRTRVVLRIGSAHSYAIVWVNGVDTLEHEGGYLPFEADISNLVQVGPLPSRLRITIAINNTLTPTTLPPGTIQYLTDTSKYPKGYFVQNTYFDFFNYAGLQRSVLLYTTPTTYIDDITVTTSVEQDSGLVNYQISVKGSNLFKLEVRLLDAENKVVANGTGTQGQLKVPGVSLWWPYLMHERPAYLYSLEVQLTAQTSLGPVSDFYTLPVGIRTVAVTKSQFLINGKPFYFHGVNKHEDADIRGKGFDWPLLVKDFNLLRWLGANAFRTSHYPYAEEVMQMCDRYGIVVIDECPGVGLALPQFFNNVSLHHHMQVMEEVVRRDKNHPAVVMWSVANEPASHLESAGYYLKMVIAHTKSLDPSRPVTFVSNSNYAADKGAPYVDVICLNSYYSWYHDYGHLELIQLQLATQFENWYKKYQKPIIQSEYGAETIAGFHQDPPLMFTEEYQKSLLEQYHLGLDQKRRKYVVGELIWNFADFMTEQSPTRVLGNKKGIFTRQRQPKSAAFLLRERYWKIANETRYPHSVAKSQCLENSLFT
modifications: mannose 6-phosphate on its glycans (Man-6-P-containing lysosomal enzyme; nonphosphorylated enzyme removed)
B3: Dom1-3His (extracytoplasmic domains 1-3 of the bovine CI-MPR, residues 1-432, C-terminal His6) (domain or fragment, UniProt P08169 45-476, looked up)
chain: AAGTQGAEFPELCSYTWEAVDTKNNMLYKINICGNMGVAQCGPSSAVCMHDLKTDSFHSVGDSLLKTASRSLLEFNTTVNCKQQNHKIQSSITFLCGKTLGTPEFVTATDCVHYFEWRTTAACKKNIFKANKEVPCYAFDRELKKHDLNPLIKTSGAYLVDDSDPDTSLFINVCRDIEVLRASSPQVRVCPTGAAACLVRGDRAFDVGRPQEGLKLVSNDRLVLSYVKEGAGQPDFCDGHSPAVTITFVCPSERREGTIPKLTAKSNCRFEIEWVTEYACHRDYLESRSCSLSSAQHDVAVDLQPLSRVEASDSLFYTSEADEYTYYLSICGGSQAPICNKKDAAVCQVKKADSTQVKVAGRPQNLTLRYSDGDLTLIYFGGEECSSGFQRMSVINFECNQTAGNNGRGAPVFTGEVDCTYFFTWDTKYACV
B4: Dom1-3HisK82A (domain or fragment, bovine, UniProt P08169 45-476, looked up)
chain: B3 chain with K82A
B5: Dom1-3HisK23A (domain or fragment, bovine, UniProt P08169 45-476, looked up)
chain: B3 chain with K23A
B6: Dom1-3HisK215A (domain or fragment, bovine, UniProt P08169 45-476, looked up)
chain: B3 chain with K215A
B7: Dom1-3HisK98A (domain or fragment, bovine, UniProt P08169 45-476, looked up)
chain: B3 chain with K98A
B8: Dom1-3HisK132A (domain or fragment, bovine, UniProt P08169 45-476, looked up)
chain: B3 chain with K132A
B9: Dom1-3HisK125A (domain or fragment, bovine, UniProt P08169 45-476, looked up)
chain: B3 chain with K125A
B10: Dom1-3HisK53A (domain or fragment, bovine, UniProt P08169 45-476, looked up)
chain: B3 chain with K53A
B11: Dom1-3HisR118A (domain or fragment, bovine, UniProt P08169 45-476, looked up)
chain: B3 chain with R118A

Columns and labels:
Assay in all cases: SPR
[1] = target: B3
[2] = target: soluble form of the cation-independent mannose 6-phosphate receptor isolated from fetal bovine serum (bovine, UniProt P08169 45-2313)
human prothrombin = human prothrombin (human, plasma-purified zymogen; gamma-carboxyglutamate in Gla domain, N-glycosylated, disulfides (by convention, not given))
human β-glucuronidase [3] = target: B2
human β-glucuronidase [4] = target: B2; remark: listed apart in the source

| Kd (human β-glucuronidase [4]) | Binder | further results |
| --- | --- | --- |
|  | B1 | Kd [1]: > 2500 nM |
|  | B2 | Kd [2]: 22 ± 3 nM |
|  | B3 | Kd (human prothrombin): > 2500 nM; Kd (human β-glucuronidase [3]): 10 ± 2 nM |
| 17 ± 2 nM | B4 |  |
| 14 ± 1 nM | B5 |  |
| 18 ± 2 nM | B6 |  |
| 17 ± 1 nM | B7 |  |
| 35 ± 4 nM | B8 |  |
| 26 ± 2 nM | B9 |  |
| 17 ± 2 nM | B10 |  |
| 12 ± 1 nM | B11 |  |
